Test results: article PMC5667893, “TRIM5α SPRY/coiled-coil interactions optimize avid retroviral capsid recognition” (PLoS Pathogens, 2017)
Substitutions are numbered along the chain they refer to. Numbers in names are those of the source.

B1: CC-L2 fragment of rhesus TRIM5α (residues 133–300) E197A (domain or fragment, UniProt Q0PF16 133-300, looked up)
chain: MEEVAQEYHVKLQTALEMLRQKQQEAEKLEADIREEKASWKIQIDYDKTNVSADFEQLREILDWAESNELQNLEKEEEDILKSLTKSETEMVQQTQYMRELISELEHRLQGSMMDLLQGVDGIIKRIENMTLKKPKTFHKNQRRVFRAPDLKGMLDMFRELTDARRYW
notes: TRIM5α, rhesus, coiled-coil and L2 linker, residues 133-300; dimeric with a trailing shoulder of monomer by SEC-MALS; also called CC-L2 E197A; source: E. coli BL21(DE3), autoinduction, purified (Ni-NTA, anion exchange, size exclusion); not shown: His, N-terminal, cleaved; SUMO, N-terminal, cleaved
B2: CC-L2 fragment of rhesus TRIM5α (residues 133–300), wildtype (domain or fragment, UniProt Q0PF16 133-300, looked up)
chain: B1 chain with A65E
notes: TRIM5α, rhesus, coiled-coil and L2 linker, residues 133-300; His-SUMO leader cleaved with Ulp1 protease; also called TRIM5α_(133–300); wildtype control; source: E. coli BL21(DE3), autoinduction, purified (Ni-NTA, anion exchange, size exclusion); not shown: His, N-terminal, cleaved; SUMO, N-terminal, cleaved
B3: CC-L2 fragment of rhesus TRIM5α (residues 133–300) D186A (domain or fragment, UniProt Q0PF16 133-300, looked up)
chain: B1 chain with D54A, A65E
notes: TRIM5α, rhesus, coiled-coil and L2 linker, residues 133-300; also called CC-L2 D186A; source: E. coli BL21(DE3), autoinduction, purified (Ni-NTA, anion exchange, size exclusion); not shown: His, N-terminal, cleaved; SUMO, N-terminal, cleaved
B4: CC-L2 fragment of rhesus TRIM5α (residues 133–300) I193A (domain or fragment, UniProt Q0PF16 133-300, looked up)
chain: B1 chain with I61A, A65E
notes: TRIM5α, rhesus, coiled-coil and L2 linker, residues 133-300; also called CC-L2 I193A; source: E. coli BL21(DE3), autoinduction, purified (Ni-NTA, anion exchange, size exclusion); not shown: His, N-terminal, cleaved; SUMO, N-terminal, cleaved
B5: CC-L2 fragment of rhesus TRIM5α (residues 133–300) E201A (domain or fragment, UniProt Q0PF16 133-300, looked up)
chain: B1 chain with A65E, E69A
notes: TRIM5α, rhesus, coiled-coil and L2 linker, residues 133-300; also called CC-L2 E201A; source: E. coli BL21(DE3), autoinduction, purified (Ni-NTA, anion exchange, size exclusion); not shown: His, N-terminal, cleaved; SUMO, N-terminal, cleaved

Assays:
[1] = biological target: disulfide-stabilized HIV-1 CA tubes (HIV-1); assay: co-sedimentation; purified TRIM5-21R (5 μM) incubated with disulfide-stabilized HIV-1 CA tubes, fractionated by centrifugation, load, soluble and pellet fractions on SDS-PAGE with Coomassie staining, densitometry; done right after purification
[2] = biological target: TRIM5-21R F187A (human | rhesus); assay: anion exchange chromatography + SEC; relative fractions of monomer and dimer of TRIM5-21R proteins during purification; linear salt gradient; dimer to monomers
[3] = biological target: TRIM5-21R L190A (human | rhesus); assay: as above
[4] = biological target: the molecule itself; assay: SEC-MALS; purified CC-L2 proteins, 50 μL injected at 0.5–1 mg/mL; dimer to monomers

Molecule | percent in the pellet with the CA tubes [1] [%] | stoichiometry N [4] | further results
TRIM5-21R (rhesus TRIM5α with its RING domain replaced by that of human TRIM21), wildtype | – | – | percent co-pelleted with the CA tubes [1]: 50%
TRIM5-21R D186A | 36 | – | –
TRIM5-21R E197A | 61 | – | –
TRIM5-21R F187A | – | – | monomer fraction of the total protein [2]: > 50%
TRIM5-21R L190A | 34 | – | monomer fraction of the total protein [3]: > 50%
TRIM5-21R L194A | 29 | – | –
B1 | – | 2 | –
B2 | – | 2 | –
B3 | – | 2 | –
B4 | – | 2 | –
B5 | – | 2 | –
